In PMC10751915:
Where two headings read alike, the source gives them in different places.

Experiments:
FcRn [1] = molecular target: FcRn (UniProt P55899)
[2] = molecular target: FCGR3A (176Phe/F158) (CD16a) (UniProt P08637)
FCGR2A (167R) (CD32a) [3] = molecular target: FCGR2A (167R) (CD32a) (UniProt P12318)
FCGR2A (167H) (CD32a) [4] = molecular target: FCGR2A (167H) (CD32a) (UniProt P12318)
[5] = molecular target: FCGR3A (176Val/V158) (CD16a) (UniProt P08637)
FCGR1 (CD64) [6] = molecular target: FCGR1 (CD64) (UniProt P12314)
FcRn [7] = molecular target: FcRn (UniProt P55899); remark: listed apart in the source
[8] = molecular target: FCGR3A (176Val/V158) (CD16a) (UniProt P08637); remark: listed apart in the source
FCGR1 (CD64) [9] = molecular target: FCGR1 (CD64) (UniProt P12314); remark: listed apart in the source
FCGR2A (167H) (CD32a) [10] = molecular target: FCGR2A (167H) (CD32a) (UniProt P12318); remark: listed apart in the source
[11] = molecular target: FCGR3A (176Phe/F158) (CD16a) (UniProt P08637); remark: listed apart in the source
FCGR2A (167R) (CD32a) [12] = molecular target: FCGR2A (167R) (CD32a) (UniProt P12318); remark: listed apart in the source

UniProt P12314, sequence (P12314 16-292): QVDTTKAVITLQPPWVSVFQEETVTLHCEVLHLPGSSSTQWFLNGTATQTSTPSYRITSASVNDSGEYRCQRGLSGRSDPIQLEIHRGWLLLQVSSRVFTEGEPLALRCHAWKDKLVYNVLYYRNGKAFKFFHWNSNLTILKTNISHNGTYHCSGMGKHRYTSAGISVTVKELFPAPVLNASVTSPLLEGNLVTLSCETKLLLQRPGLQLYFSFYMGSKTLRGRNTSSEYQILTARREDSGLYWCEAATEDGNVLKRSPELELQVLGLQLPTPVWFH
UniProt P55899, sequence (P55899 24-297): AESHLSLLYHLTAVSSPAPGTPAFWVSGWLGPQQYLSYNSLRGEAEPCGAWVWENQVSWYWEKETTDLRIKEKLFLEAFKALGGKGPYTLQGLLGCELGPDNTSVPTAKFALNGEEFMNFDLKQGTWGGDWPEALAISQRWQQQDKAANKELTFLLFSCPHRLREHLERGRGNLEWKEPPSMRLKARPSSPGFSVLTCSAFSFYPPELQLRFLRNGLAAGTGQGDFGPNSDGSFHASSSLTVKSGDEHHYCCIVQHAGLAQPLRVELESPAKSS

IC50 (FcRn [1]) [nM] | IC50 [2] [nM] | IC50 (FCGR2A (167R) (CD32a) [3]) [nM] | IC50 (FCGR2A (167H) (CD32a) [4]) [nM] | IC50 [5] [nM] | IC50 (FCGR1 (CD64) [6]) [nM] | IC50 (FcRn [7]) [nM] | IC50 [8] [nM] | IC50 (FCGR1 (CD64) [9]) [nM] | IC50 (FCGR2A (167H) (CD32a) [10]) [nM] | IC50 [11] [nM] | IC50 (FCGR2A (167R) (CD32a) [12]) [nM] | Substance
0.97 | 385 | 286 | 137 | 505 | 6 | – | – | – | – | – | – | KVA12123 (YTE, hIgG1) (from UniProt P01857)
– | – | – | – | – | – | 5.2 | 95.1 | 1.59 | 29.1 | 53.3 | 67.3 | KVA12.1 (WT, hIgG1) (from UniProt P01857)
